The labels stand for the following.
B1: DVD3083 (bispecific antibody, IgG1)
VH: EVQLVESGGGLVQPGGSLRLSCAASGFTFSNYGVTWVRQAPGKGLEWVSMIWADGSTHYASSVKGRFTISRDNSKNTLYLQMNSLRAEDTAVYYCAREWQHGPVAYWGQGTLVTVSSGGGGSGGGGSEVQLVQSGAEVKKPGASVKVSCKASGYTFTTYGVSWVRQAPGQGLEWMGEIYPGNYNTYYNEKFRGRVTMTTDTSTSTAYMELRSLRSDDTAVYYCARWRTSYFSDYGYFDYWGQGTTVTVSS
VL: DIQMTQSPSSLSASVGDRVTITCRASQLVSSAVAWYQQKPGKAPKLLIYWASARHTGVPSRFSGSGSGTDFTLTISSLQPEDFATYYCQQHYKTPFTFGQGTKLEIKRGGSGGGGSGDVVMTQSPLSLPVTLGQPASISCRSSQSLVHSHGNTYLHWYQQRPGQSPRLLIYTVSNRFSGVPDRFSGSGSGTDFTLKISRVEAEDVGVYYCSQSTHVPYTFGGGTKVEIKR
notes: DVD-Ig; wt hIgG1 + kappa constants
B2: DVD3093 (bispecific antibody, IgG1)
VH: B1 VH with T35E, M50G, S61D, S62T, G65S
VL: B1 VL with R24K, A53T, R54L, K93R
notes: as for B1
B3: DVD3009 (bispecific antibody, IgG1)
VH: EVQLVQSGAEVKKPGASVKVSCKASGYTFNNYGIIWVRQAPGQGLEWMGWINTYTGKPTYAQKFQGRVTMTTDTSTSTAYMELSSLRSEDTAVYYCARKLFNTVAVTDNAMDYWGQGTTVTVSSASTKGPEVTLRESGPGLVKPTQTLTLTCTLYGFSLSTSDMGVDWIRQPPGKGLEWLAHIWWDDVKRYNPALKSRLTISKDTSKNQVVLKLTSVDPVDTATYYCARTVSSGYIYYAMDYWGQGTLVTVSS
VL: DIQMTQSPSSLSASVGDRVTITCRASQDIENYLNWYQQKPGKAPKLLIYYTSRLQSGVPSRFSGSGSGTDFTLTISSLQPEDFATYFCQQGNTQPPTFGQGTKLEIKRTVAAPDIQMTQSPSSLSASVGDRVTISCRASQDIRNYLNWYQQKPGKAPKLLIFYTSKLHSGVPSRFSGSGSGTDYTLTISSLQPEDIATYYCQQGLTPPLTFGGGTKVEIKR
notes: as for B1
B4: DVD3008 (bispecific antibody, IgG1)
VH: EVQLVQSGAEVKKPGASVKVSCKASGYTFNNYGIIWVRQAPGQGLEWMGWINTYTGKPTYAQKFQGRVTMTTDTSTSTAYMELSSLRSEDTAVYYCARKLFNTVAVTDNAMDYWGQGTTVTVSSGGGGSGGGGSEVTLRESGPGLVKPTQTLTLTCTLYGFSLSTSDMGVDWIRQPPGKGLEWLAHIWWDDVKRYNPALKSRLTISKDTSKNQVVLKLTSVDPVDTATYYCARTVSSGYIYYAMDYWGQGTLVTVSS
VL: DIQMTQSPSSLSASVGDRVTITCRASQDIENYLNWYQQKPGKAPKLLIYYTSRLQSGVPSRFSGSGSGTDFTLTISSLQPEDFATYFCQQGNTQPPTFGQGTKLEIKRGGSGGGGSGDIQMTQSPSSLSASVGDRVTISCRASQDIRNYLNWYQQKPGKAPKLLIFYTSKLHSGVPSRFSGSGSGTDYTLTISSLQPEDIATYYCQQGLTPPLTFGGGTKVEIKR
notes: as for B1
B5: DVD2691 (bispecific antibody, IgG1)
VH: EVTLRESGPGLVKPTQTLTLTCTLYGFSLSTSDMGVDWIRQPPGKGLEWLAHIWWDDVKRYNPALKSRLTISKDTSKNQVVLKLTSVDPVDTATYYCARTVSSGYIYYAMDYWGQGTLVTVSSASTKGPEVQLVESGGGLVQPGGSLRLSCAASGFTFSNYGVTWVRQAPGKGLEWVSMIWADGSTHYASSVKGRFTISRDNSKNTLYLQMNSLRAEDTAVYYCAREWQHGPVAYWGQGTLVTVSS
VL: DIQMTQSPSSLSASVGDRVTISCRASQDIRNYLNWYQQKPGKAPKLLIFYTSKLHSGVPSRFSGSGSGTDYTLTISSLQPEDIATYYCQQGLTPPLTFGGGTKVEIKRTVAAPSVFIFPPDIQMTQSPSSLSASVGDRVTITCRASQLVSSAVAWYQQKPGKAPKLLIYWASARHTGVPSRFSGSGSGTDFTLTISSLQPEDFATYYCQQHYKTPFTFGQGTKLEIKR
notes: as for B1
B6: DVD2684 (bispecific antibody, IgG1)
VH: EVQLVESGGGLVQPGGSLRLSCAASGFTFSNYGVTWVRQAPGKGLEWVSMIWADGSTHYASSVKGRFTISRDNSKNTLYLQMNSLRAEDTAVYYCAREWQHGPVAYWGQGTLVTVSSASTKGPEVTLRESGPGLVKPTQTLTLTCTLYGFSLSTSDMGVDWIRQPPGKGLEWLAHIWWDDVKRYNPALKSRLTISKDTSKNQVVLKLTSVDPVDTATYYCARTVSSGYIYYAMDYWGQGTLVTVSS
VL: DIQMTQSPSSLSASVGDRVTITCRASQLVSSAVAWYQQKPGKAPKLLIYWASARHTGVPSRFSGSGSGTDFTLTISSLQPEDFATYYCQQHYKTPFTFGQGTKLEIKRTVAAPDIQMTQSPSSLSASVGDRVTISCRASQDIRNYLNWYQQKPGKAPKLLIFYTSKLHSGVPSRFSGSGSGTDYTLTISSLQPEDIATYYCQQGLTPPLTFGGGTKVEIKR
notes: as for B1
B7: DVD2686 (bispecific antibody, IgG1)
VH: B6 VH
VL: DIQMTQSPSSLSASVGDRVTITCRASQLVSSAVAWYQQKPGKAPKLLIYWASARHTGVPSRFSGSGSGTDFTLTISSLQPEDFATYYCQQHYKTPFTFGQGTKLEIKRTVAAPSVFIFPPDIQMTQSPSSLSASVGDRVTISCRASQDIRNYLNWYQQKPGKAPKLLIFYTSKLHSGVPSRFSGSGSGTDYTLTISSLQPEDIATYYCQQGLTPPLTFGGGTKVEIKR
notes: as for B1
B8: DVD2687 (bispecific antibody, IgG1)
VH: EVQLVESGGGLVQPGGSLRLSCAASGFTFSNYGVTWVRQAPGKGLEWVSMIWADGSTHYASSVKGRFTISRDNSKNTLYLQMNSLRAEDTAVYYCAREWQHGPVAYWGQGTLVTVSSASTKGPSVFPLAPEVTLRESGPGLVKPTQTLTLTCTLYGFSLSTSDMGVDWIRQPPGKGLEWLAHIWWDDVKRYNPALKSRLTISKDTSKNQVVLKLTSVDPVDTATYYCARTVSSGYIYYAMDYWGQGTLVTVSS
VL: B6 VL
notes: as for B1
B9: DVD2734 (bispecific antibody, IgG1)
VH: B6 VH with T35E, M50G, S61D, S62T, G65S
VL: B6 VL with R24K, A53T, R54L, K93R
notes: as for B1
B10: DVD2737 (bispecific antibody, IgG1)
VH: B8 VH with T35E, M50G, S61D, S62T, G65S
VL: B6 VL with R24K, A53T, R54L, K93R
notes: as for B1
B11: DVD2736 (bispecific antibody, IgG1)
VH: B6 VH with T35E, M50G, S61D, S62T, G65S
VL: B7 VL with R24K, A53T, R54L, K93R
notes: as for B1
B12: DVD3084 (bispecific antibody, IgG1)
VH: EVQLVESGGGLVQPGGSLRLSCAASGFTFSNYGVTWVRQAPGKGLEWVSMIWADGSTHYASSVKGRFTISRDNSKNTLYLQMNSLRAEDTAVYYCAREWQHGPVAYWGQGTLVTVSSASTKGPEVQLVQSGAEVKKPGASVKVSCKASGYTFTTYGVSWVRQAPGQGLEWMGEIYPGNYNTYYNEKFRGRVTMTTDTSTSTAYMELRSLRSDDTAVYYCARWRTSYFSDYGYFDYWGQGTTVTVSS
VL: DIQMTQSPSSLSASVGDRVTITCRASQLVSSAVAWYQQKPGKAPKLLIYWASARHTGVPSRFSGSGSGTDFTLTISSLQPEDFATYYCQQHYKTPFTFGQGTKLEIKRTVAAPDVVMTQSPLSLPVTLGQPASISCRSSQSLVHSHGNTYLHWYQQRPGQSPRLLIYTVSNRFSGVPDRFSGSGSGTDFTLKISRVEAEDVGVYYCSQSTHVPYTFGGGTKVEIKR
notes: as for B1
B13: DVD3094 (bispecific antibody, IgG1)
VH: B12 VH with T35E, M50G, S61D, S62T, G65S
VL: B12 VL with R24K, A53T, R54L, K93R
notes: as for B1

Where a chain is given by its changes, count along the chain named.

Chain of Recombinant Human IL-13 (P35225 35-146 limits assumed): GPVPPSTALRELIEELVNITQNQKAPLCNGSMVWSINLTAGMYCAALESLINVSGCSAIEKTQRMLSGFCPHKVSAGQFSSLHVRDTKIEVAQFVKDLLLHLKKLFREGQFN

This test concerns the target Recombinant Human IL-13 (human, UniProt P35225 35-146, limits assumed). The test is described as follows: Biacore SPR. The procedure:
The BIACORE assay (GE, Healthcare Piscataway, N.J.) determined the affinity of antibodies or DVD-Ig with kinetic measurements of on-rate and off-rate constants. Binding of antibodies or DVD-Ig proteins to a target antigen (for example, a purified recombinant target antigen) was determined by surface plasmon resonance-based measurements with a Biacore T200 using running HBS-EP+buffer from GE Healthcare at 25° C. All chemicals were obtained from GE Healthcare or otherwise from a different source as described in the text. For example, approximately 5000 RU of goat anti-mouse IgG, (Fcγ), fragment specific polyclonal antibody (Pierce Biotechnology Inc, Rockford, Ill.) diluted in 10 mM sodium acetate (pH 4.5) was directly immobilized across a CM5 research grade biosensor chip using a standard amine coupling kit according to manufacturer's instructions. Unreacted moieties on the biosensor surface were blocked with ethanolamine. Modified carboxymethyl dextran surface in flowcell 1 was used as a reference surface. Rate constants were derived by making kinetic binding measurements at different antigen concentrations ranging from 0.8-100 nM. Binding was recorded as a function of time and kinetic rate constants were calculated. In this assay, association rate was evaluated for 5 min and dissociation was monitored for 10 min. For kinetic screening analysis, rate equations derived from the 1:1 binding model were fitted simultaneously to association and dissociation phases of all injections (using global fit analysis with Rmax fit locally to account for capture variations) with the use of Biaevaluation software. Purified antibodies or DVD-Ig proteins were diluted in HEPES-buffered saline for capture across goat anti-mouse IgG specific reaction surfaces. Antibodies or DVD-Ig proteins to be captured as a ligand were injected over reaction matrices at a flow rate of 5 μl/minute. The association and dissociation rate constants, kₒₙ (M⁻¹ s⁻¹) and koff (s⁻¹) were determined under a continuous flow rate of 50 μl/minute. Rate constants were derived by making kinetic binding measurements at different antigen concentrations ranging from 0.8-100 nM. Binding was recorded as a function of time and kinetic rate constants were calculated. In this assay, association rate was evaluated for 5 min and dissociation was monitored for 10 min.
For orientation: In SPR one partner is held on a chip, and binding of the other changes the refractive index at the surface.
Turning to B1, the Kd (in general, the free concentration of one partner at which half of the binding sites on the other are occupied at equilibrium, for simple one-to-one binding) worked out at 0.038 nM; the off-rate (koff) (as a rule, the rate constant with which the complex falls apart) stood at 2e-06 s⁻¹; the kon (in general, the second-order rate constant of association) is 52000 M⁻¹ s⁻¹.

As for B2, the Kd was less than 0.02 nM, the koff was less than 1e-06 s⁻¹ and the kon was determined as 51000 M⁻¹ s⁻¹.

B3: the Kd came out at 0.36 nM, the koff came to 3.2e-05 s⁻¹ and the kon worked out at 87000 M⁻¹ s⁻¹.

As to B4, the dissociation constant Kd was determined as 0.14 nM, the koff stood at 1.5e-05 s⁻¹ and the kon amounted to 110000 M⁻¹ s⁻¹.

With B5, the Kd was 0.13 nM, the koff was 0.00013 s⁻¹ and the kon worked out at 950000 M⁻¹ s⁻¹.

Consider B6, for which the Kd was 1.2 nM, the koff came to 5.9e-05 s⁻¹ and the kon worked out at 48000 M⁻¹ s⁻¹.

For B7, the Kd is 0.32 nM, the koff amounted to 4.4e-05 s⁻¹ and the kon came to 140000 M⁻¹ s⁻¹.

Turning to B8, the Kd turned out to be 0.47 nM, the koff amounted to 5e-05 s⁻¹ and the kon turned out to be 110000 M⁻¹ s⁻¹.

For the molecule B9, the equilibrium dissociation constant (Kd) came out at 0.82 nM, the koff was found to be 4.8e-05 s⁻¹ and the kon turned out to be 58000 M⁻¹ s⁻¹.

As to B10, the dissociation constant Kd is 0.5 nM, the koff stood at 6.2e-05 s⁻¹ and the kon was 120000 M⁻¹ s⁻¹.

As to B11, the Kd came out at 0.3 nM, the koff amounted to 4.6e-05 s⁻¹ and the kon was 150000 M⁻¹ s⁻¹.

Take B12: the equilibrium dissociation constant (Kd) was 0.012 nM, the koff turned out to be 1.1e-06 s⁻¹ and the kon was 87000 M⁻¹ s⁻¹.

For the molecule B13, the Kd stood at 0.067 nM, the koff amounted to 5.9e-06 s⁻¹ and the on-rate constant (kon) was determined as 89000 M⁻¹ s⁻¹.

The values above are taken from US20140271457A1 (AbbVie / Abbott, published 2014).
